Measured values taken from patent publication US20170296640A1 (IMMATICS BIOTECHNOLOGIES, published 2017).

Target: T1, HLA-A*02:01 (peptide-receptive MHC class I monomer after UV cleavage of the UV-sensitive ligand) (human)
T1 construct: MHC monomers loaded by UV-ligand exchange and captured on streptavidin plates
Assay: UV ligand-exchange ELISA; exchange yield grade (+ >=10%, ++ >=20%, +++ >=50%, ++++ >=75%)
Description: Candidate peptides for T cell based therapies according to the present invention were further tested for their MHC binding capacity (affinity). The individual peptide-MHC complexes were produced by UV-ligand exchange, where a UV-sensitive peptide is cleaved upon UV-irradiation, and exchanged with the peptide of interest as analyzed. Only peptide candidates that can effectively bind and stabilize the peptide-receptive MHC molecules prevent dissociation of the MHC complexes. To determine the yield of the exchange reaction, an ELISA was performed based on the detection of the light chain (β2m) of stabilized MHC complexes. The assay was performed as generally described in Rodenko et al. (Rodenko et al., 2006).
96 well MAXISorp plates (NUNC) were coated over night with 2 ug/ml streptavidin in PBS at room temperature, washed 4× and blocked for 1 h at 37° C. in 2% BSA containing blocking buffer. Refolded HLA-A*02:01/MLA-001 monomers served as standards, covering the range of 15-500 ng/ml. Peptide-MHC monomers of the UV-exchange reaction were diluted 100 fold in blocking buffer. Samples were incubated for 1 h at 37° C., washed four times, incubated with 2 ug/ml HRP conjugated anti-β2m for 1 h at 37° C., washed again and detected with TMB solution that is stopped with […]. Absorption was measured at 450 nm. Candidate peptides that show a high exchange yield (preferably higher than 50%, most preferred higher than 75%) are generally preferred for a generation and production of antibodies or fragments thereof, and/or T cell receptors or fragments thereof, as they show sufficient avidity to the MHC molecules and prevent dissociation of the MHC complexes.

Row | Binder | peptide exchange yield
1 | YVLQGEFFL [YVLQGEFFL (SEQ ID NO: 178)] | 50 to 75%
2 | SLSHLVPAL [SLSHLVPAL (SEQ ID NO: 189)] | 50 to 75%
3 | FIDDLFAFV [FIDDLFAFV (SEQ ID NO: 211)] | 50 to 75%
4 | SAVSGQWEV [SAVSGQWEV (SEQ ID NO: 206)] | 20 to 50%
5 | SLADSMPSL [SLADSMPSL (SEQ ID NO: 193)] | 20 to 50%
6 | VILDSVASV [VILDSVASV (SEQ ID NO: 173)] | ≥ 75%
7 | SLNSTTWKV [SLNSTTWKV (SEQ ID NO: 199)] | 50 to 75%
8 | VIIPLLSSV [VIIPLLSSV (SEQ ID NO: 17)] | 50 to 75%
9 | ILSEKEYKL [ILSEKEYKL (SEQ ID NO: 150)] | 50 to 75%
10 | RLADLKVSI [RLADLKVSI (SEQ ID NO: 162)] | ≥ 75%
11 | AVLGTSWQL [AVLGTSWQL (SEQ ID NO: 184)] | 50 to 75%
12 | SLFSITKSV [SLFSITKSV (SEQ ID NO: 167)] | 50 to 75%
13 | IIIEDLLEA [IIIEDLLEA (SEQ ID NO: 15)] | ≥ 75%
14 | LLSEETPSA [LLSEETPSA (SEQ ID NO: 2)] | 50 to 75%
15 | GLIELVDQL [GLIELVDQL (SEQ ID NO: 190)] | 50 to 75%
16 | GMAAEVPKV [GMAAEVPKV (SEQ ID NO: 192)] | 20 to 50%
17 | ALAAGGYDV [ALAAGGYDV (SEQ ID NO: 202)] | 20 to 50%
18 | YLLDFEDRL [YLLDFEDRL (SEQ ID NO: 200)] | ≥ 75%
19 | YLLTDNVVKL [YLLTDNVVKL (SEQ ID NO: 197)] | 20 to 50%
20 | VLFETVLTI [VLFETVLTI (SEQ ID NO: 183)] | 50 to 75%
21 | KIMYTLVSV [KIMYTLVSV (SEQ ID NO: 152)] | 20 to 50%
22 | LLPPPSPAA [LLPPPSPAA (SEQ ID NO: 160)] | 50 to 75%

Row | Binder | peptide exchange yield
23 | SLLSPLLSV [SLLSPLLSV (SEQ ID NO: 168)] | 50 to 75%
24 | ALFKEAYSL [ALFKEAYSL (SEQ ID NO: 21)] | 50 to 75%
25 | VMESILLRL [VMESILLRL (SEQ ID NO: 175)] | 50 to 75%
26 | LLLSDSGFYL [LLLSDSGFYL (SEQ ID NO: 159)] | 50 to 75%
27 | SSLEENLLHQV [SSLEENLLHQV (SEQ ID NO: 169)] | 50 to 75%
28 | KLMTSLVKV [KLMTSLVKV (SEQ ID NO: 155)] | 50 to 75%
29 | KLLKGIYAI [KLLKGIYAI (SEQ ID NO: 153)] | 50 to 75%
30 | GILQLVESV [GILQLVESV (SEQ ID NO: 180)] | 50 to 75%
31 | KVLEFLAKV [KVLEFLAKV (SEQ ID NO: 157)] | 50 to 75%
32 | TLFYESPHL [TLFYESPHL (SEQ ID NO: 205)] | 50 to 75%
33 | YLNISQVNV [YLNISQVNV (SEQ ID NO: 201)] | 50 to 75%
34 | TLIAAILYL [TLIAAILYL (SEQ ID NO: 16)] | 20 to 50%
35 | TLLDVISAL [TLLDVISAL (SEQ ID NO: 171)] | ≥ 75%
36 | LLPPPPPVA [LLPPPPPVA (SEQ ID NO: 182)] | ≥ 75%
37 | GLSDISAQV [GLSDISAQV (SEQ ID NO: 191)] | 50 to 75%
38 | FLAVSLPLL [FLAVSLPLL (SEQ ID NO: 208)] | 50 to 75%
39 | FVDTNLYFL [FVDTNLYFL (SEQ ID NO: 179)] | 50 to 75%
40 | FLDVSRDFV [FLDVSRDFV (SEQ ID NO: 186)] | 20 to 50%
41 | VLEAILPLV [VLEAILPLV (SEQ ID NO: 19)] | ≥ 75%
42 | SLAPFDREPFTL [SLAPFDREPFTL (SEQ ID NO: 194)] | 20 to 50%
43 | YLYEAEEATTL [YLYEAEEATTL (SEQ ID NO: 177)] | 50 to 75%
44 | ILDTIFHKV [ILDTIFHKV (SEQ ID NO: 203)] | 50 to 75%

Row | Binder | peptide exchange yield
45 | RLCDIVVNV [RLCDIVVNV (SEQ ID NO: 204)] | 20 to 50%
46 | YLHIYESQL [YLHIYESQL (SEQ ID NO: 176)] | 50 to 75%
47 | KVQDVLHQV [KVQDVLHQV (SEQ ID NO: 158)] | 50 to 75%
48 | FLNSFVFKM [FLNSFVFKM (SEQ ID NO: 187)] | 20 to 50%
49 | KLMNIQQQL [KLMNIQQQL (SEQ ID NO: 154)] | 50 to 75%
50 | VLVEITDVDFAA [VLVEITDVDFAA (SEQ ID NO: 174)] | ≥ 75%
51 | GLEDEMYEV [GLEDEMYEV (SEQ ID NO: 188)] | 20 to 50%
52 | KLTDQPPLV [KLTDQPPLV (SEQ ID NO: 18)] | 50 to 75%
53 | ILVKQSPML [ILVKQSPML (SEQ ID NO: 151)] | 50 to 75%
54 | SIFDAVLKGV [SIFDAVLKGV (SEQ ID NO: 163)] | ≥ 75%
55 | FIAQLNNVEL [FIAQLNNVEL (SEQ ID NO: 185)] | 50 to 75%
56 | SLFDGAVISTV [SLFDGAVISTV (SEQ ID NO: 164)] | 50 to 75%
57 | KLLEEIEFL [KLLEEIEFL (SEQ ID NO: 165)] | 50 to 75%
58 | LLFDQNDKV [LLFDQNDKV (SEQ ID NO: 181)] | 50 to 75%
59 | GLLSAVSSV [GLLSAVSSV (SEQ ID NO: 198)] | 50 to 75%
60 | TLQDSLEFI [TLQDSLEFI (SEQ ID NO: 172)] | ≥ 75%
61 | ALIPDLNQI [ALIPDLNQI (SEQ ID NO: 195)] | 50 to 75%
62 | NLMLELETV [NLMLELETV (SEQ ID NO: 161)] | 50 to 75%
63 | KMLEDDLKL [KMLEDDLKL (SEQ ID NO: 156)] | 50 to 75%
64 | FLAEQFEFL [FLAEQFEFL (SEQ ID NO: 210)] | 50 to 75%
65 | FLLDTISGL [FLLDTISGL (SEQ ID NO: 209)] | 50 to 75%
66 | GLVGLLEQA [GLVGLLEQA (SEQ ID NO: 207)] | ≥ 75%
